Consider one variant from PMC11582362.

The labels stand for the following.
B1: full length ADAR1 p110, wild type (FLAG-tagged and HA-tagged copies) [human] / full length ADAR1 p110, wild type (FLAG-tagged and HA-tagged copies) [human] (parent)
chain 1: MAEIKEKICDYLFNVSDSSALNLAKNIGLTKARDINAVLIDMERQGDVYRQGTTPPIWHLTDKKRERMQIKRNTNSVPETAPAAIPETKRNAEFLTCNIPTSNASNNMVTTEKVENGQEPVIKLENRQEARPEPARLKPPVHYNGPSKAGYVDFENGQWATDDIPDDLNSIRAAPGEFRAIMEMPSFYSHGLPRCSPYKKLTECQLKNPISGLLEYAQFASQTCEFNMIEQSGPPHEPRFKFQVVINGREFPPAEAGSKKVAKQDAAMKAMTILLEEAKAKDSGKSEESSHYSTEKESEKTAESQTPTPSATSFFSGKSPVTTLLECMHKLGNSCEFRLLSKEGPAHEPKFQYCVAVGAQTFPSVSAPSKKVAKQMAAEEAMKALHGEATNSMASDNQPEGMISESLDNLESMMPNKVRKIGELVRYLNTNPVGGLLEYARSHGFAAEFKLVDQSGPPHEPKFVYQAKVGGRWFPAVCAHSKKQGKQEAADAALRVLIGENEKAERMGFTEVTPVTGASLRRTMLLLSRSPEAQPKTLPLTGSTFHDQIAMLSHRCFNTLTNSFQPSLLGRKILAAIIMKKDSEDMGVVVSLGTGNRCVKGDSLSLKGETVNDCHAEIISRRGFIRFLYSELMKYNSQTAKDSIFEPAKGGEKLQIKKTVSFHLYISTAPCGDGALFDKSCSDRAMESTESRHYPVFENPKQGKLRTKVENGEGTIPVESSDIVPTWDGIRLGERLRTMSCSDKILRWNVLGLQGALLTHFLQPIYLKSVTLGYLFSQGHLTRAICCRVTRDGSAFEDGLRHPFIVNHPKVGRVSIYDSKRQSGKTKETSVNWCLADGYDLEILDGTRGTVDGPRNELSRVSKKNIFLLFKKLCSFRYRRDLLRLSYGEAKKAARDYETAKNYFKKGLKDMGYGNWISKPQEEKNFYLCPV
chain 2: B1 chain 1

This experiment covers variants of B1. The experiment is described as follows: co-immunoprecipitation (anti-FLAG IP, anti-HA western blot, bands quantified with ImageJ). As to conditions: HEK293T cells, in the presence of RNases, n = 3, parent: 70, read off a plot. (A western blot detects proteins with antibodies after separation by electrophoresis.)
Consider chain 1 V452A D453Q W473V C478S, for which the response came out at 11%.
